Publication PMC5076566 (Cell, 2016)
One block for each binder: values may come before it.

Experiments:
[1] = target: the molecule itself; experiment: polymerisation and hydrogel formation
[2] = target: Recombinant human vimentin, full length (2-466 AA), assembled into intermediate filaments (human, UniProt P08670 2-466); experiment: transmission electron microscopy of filaments mixed with test protein
[3] = target: T1, His-3xFlag tagged D290V hnRNPA2 LCS (181-341 aa) (human, UniProt P22626-2 181-341, D290V); experiment: co-IP
T1 sequence (looked up): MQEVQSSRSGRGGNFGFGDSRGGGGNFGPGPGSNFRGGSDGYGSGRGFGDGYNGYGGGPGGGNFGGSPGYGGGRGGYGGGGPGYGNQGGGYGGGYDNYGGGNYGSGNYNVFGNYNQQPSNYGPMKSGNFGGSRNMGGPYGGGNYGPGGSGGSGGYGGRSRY

[4] = target: GFP:hnRNPA1 full length (residue 2-320) (human, UniProt P09651-2 2-320); experiment: co-IP
[5] = target: GFP:hnRNPA1 ΔRRM (186-320), the C-terminal LC domain (human, UniProt P09651-2 186-320); experiment: co-IP

B1: mCherry:peripherin head domain (2-99) (domain or fragment, human, UniProt P41219 2-99, looked up)
chain: SHHPSGLRAGFSSTSYRRTFGPPPSLSPGAFSYSSSSRFSSSRLLGSASPSSSVRLGSFRSPRAGAGALLRLPSERLDFSMAEALNQEFLATRSNEKQ
binding result [1]: binds

B2: mCherry:neurofilament medium isoform head domain (2-104) (domain or fragment, human, UniProt P07197 2-104, looked up)
chain: SYTLDSLGNPSAYRRVTETRSSFSRVSGSPSSGFRSQSWSRGSPSTVSSSYKRSMLAPRLAYSSAMLSSAESSLDFSQSSSLLNGGSGPGGDYKLSRSNEKEQ
binding result [1]: binds

B3: mCherry:vimentin head domain (2-95) (domain or fragment, human, UniProt P08670 2-95, looked up)
chain: STRSVSSSSYRRMFGGPGTASRPSSSRSYVTTSTRTYSLGSALRPSTSRSLYASSPGGVYATRSSAVRLRSSVPGVRLLQDSVDFSLADAINTE
binding result [1]: binds

B4: mCherry:neurofilament light isoform head domain (2-100) (domain or fragment, human, UniProt P07196 2-100, looked up)
chain: SSFSYEPYYSTSYKRRYVETPRVHISSVRSGYSTARSAYSSYSAPVSSSLSVRRSYSSSSGSLMPSLENLDLSQVAAISNDLKSIRTQEKAQLQDLNDR
binding result [1]: binds

binding result [2]: binds
B5: GFP:FUS LC domain (residue 2-214) (domain or fragment, UniProt P35637 2-214, looked up)
chain: ASNDYTQQATQSYGAYPTQPGQGYSQQSSQPYGQQSYSGYSQSTDTSGYGQSSYSSYGQSQNTGYGTQSTPQGYGSTGGYGSSQSSQSSYGQQSSYPGYGQQPAPSSTSGSYGSSSQSSSYGQPQSGSYSQQPSYGGQQQSYGQQQSYNPPQGYGQQNQYNSSSGGGGGGGGGGNYGQDQSSMSSGGGSGGGYGNQDQSGGGGSGGYGQQDRG

B6: mCherry:neurofilament heavy isoform head domain (3-100) (domain or fragment, human, UniProt P12036 3-100, looked up)
chain: SFGGADALLGAPFAPLHGGGSLHYALARKGGAGGTRSAAGSSSGFHSWTRTSVSSVSASPSRFRGAGAASSTDSLDTLSNGPEGCMVAVATSRSEKEQ
binding result [1]: binds

binding result [3]: binds
binding result [4]: binds
binding result [5]: binds
Binder: PRPRPRPRPRPRPRPRPRPRPRPRPRPRPRPRPRPRPRPR [PR20HA peptide (20 repeats of PR with an HA epitope tag at the C-terminus)]
